From patent US20160060320A1 (UNIVERSITY OF COPENHAGEN, published 2016)
Ends that are not written are not given here.

B1: Neuropeptide Y (NPY; NPY1-36; full-length NPY) (peptide)
peptide: not shown
modifications: Tyr36 amidated

These binders were tested against NCAM on rat hippocampal neurons (rat, UniProt P13596 20-858) (assay: cell-based or functional assay).
Sequence of NCAM on rat hippocampal neurons (P13596 20-858): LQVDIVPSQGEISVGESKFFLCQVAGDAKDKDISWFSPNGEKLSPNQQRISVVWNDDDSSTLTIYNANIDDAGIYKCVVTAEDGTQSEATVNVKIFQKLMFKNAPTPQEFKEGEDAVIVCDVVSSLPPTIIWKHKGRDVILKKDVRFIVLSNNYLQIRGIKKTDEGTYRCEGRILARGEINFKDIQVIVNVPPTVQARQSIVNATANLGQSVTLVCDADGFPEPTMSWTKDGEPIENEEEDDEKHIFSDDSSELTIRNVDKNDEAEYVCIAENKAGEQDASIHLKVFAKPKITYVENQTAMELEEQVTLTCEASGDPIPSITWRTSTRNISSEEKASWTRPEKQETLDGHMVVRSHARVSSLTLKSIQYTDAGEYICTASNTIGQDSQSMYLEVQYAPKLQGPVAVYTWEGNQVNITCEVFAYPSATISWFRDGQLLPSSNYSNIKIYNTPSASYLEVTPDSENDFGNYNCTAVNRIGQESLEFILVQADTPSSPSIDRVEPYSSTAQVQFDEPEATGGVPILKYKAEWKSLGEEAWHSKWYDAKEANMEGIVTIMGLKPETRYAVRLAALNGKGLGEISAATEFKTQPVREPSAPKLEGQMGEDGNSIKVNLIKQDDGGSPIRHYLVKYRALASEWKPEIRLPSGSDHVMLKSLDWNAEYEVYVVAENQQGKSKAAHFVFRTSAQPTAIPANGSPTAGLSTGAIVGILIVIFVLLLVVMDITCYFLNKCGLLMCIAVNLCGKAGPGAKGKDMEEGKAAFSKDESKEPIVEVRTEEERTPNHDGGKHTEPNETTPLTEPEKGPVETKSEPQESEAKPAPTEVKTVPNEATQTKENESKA

| Binder | Neuritogenic effect, 1 µM NPY fragment (% of control) | Neuritogenic effect, 3 µM NPY fragment (% of control) |
| --- | --- | --- |
| YINLITRQRY-NH2 [NPY27-36] | 107 % of control | 99.1 % of control |
| SALRHYINLITRQR [NPY22-35] | 104 % of control | 91.4 % of control |
| ALRHYINLITRQRA (ends and bridges not checked) [NPY23-36 ala36] | 89.1 % of control | 91.7 % of control |
| YSALRHYINLITRQ [NPY21-34] | 87.7 % of control | 97.5 % of control |
| YSALRHYINLITRQR [NPY21-35] | 154 % of control | 233 % of control |
| PAEDMARYYSALRHYINLITRQR [NPY13-35] | 174 % of control | 305 % of control |
| ALRHYINLITRQR [NPY23-35] | 96.2 % of control | 104 % of control |
| ASALRHYINLITRQR [NPY21-35 ala21] | 95.4 % of control | 94.1 % of control |
| B1 | 166 % of control | 180 % of control |
| LRHYINLITRQR [NPY24-35] | 96.9 % of control | 103 % of control |
| YSALRHYINLITRQRY-NH2 [NPY21-36] | 108 % of control | 186 % of control |
| YPSKPDNPGEDAPAEDMARY [NPY1-20] | 97.8 % of control | 99.1 % of control |
| ALRHYINLITRQRY-NH2 [NPY23-36] | 107 % of control | 156 % of control |
| RHYINLITRQRY-NH2 [NPY25-36] | 95.9 % of control | 96.1 % of control |
| ITRQRY-NH2 (also: Tyr36 (pos 6): amidated per mods, acetylation) [NPY31-36] | 100 % of control | 91.8 % of control |
| RQRTILNIYHRLASYYRAMDEAPADEGPNDPKS [NPY3-35 reversed sequence] | 110 % of control | 285 % of control |
